From PMC4702668

Key:
[1] = target: BG505 SOSIP.664 trimer, unmodified (HIV-1); assay: cross-linking
[2] = target: B41 SOSIP.664 trimer (HIV-1); assay: cross-linking

| Substance | stoichiometry N [1] | stoichiometry N [2] |
| --- | --- | --- |
| BG505 SOSIP.664 trimer, unmodified (complex) | 3 | – |
| B41 SOSIP.664 trimer (complex) | – | 3 |
